For assay [1], the target named is T1, recombinant mouse IL-15Ralpha-Fc (mouse), Q60819.
T1 chain: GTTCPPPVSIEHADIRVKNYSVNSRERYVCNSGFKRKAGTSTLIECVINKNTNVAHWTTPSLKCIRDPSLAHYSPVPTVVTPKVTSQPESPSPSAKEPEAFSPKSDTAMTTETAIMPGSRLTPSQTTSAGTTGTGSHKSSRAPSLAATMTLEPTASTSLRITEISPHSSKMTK
The assay is described as follows: SPR (BIACORE 3000), rIL-15Rα-Fc amine-coupled to CM5 chip, analyte injected, 1:1 interaction model; rIL-15 as analyte. Particulars: remark: other sources report otherwise.

The target in assay [2] is T2, recombinant mouse IL-15Ralpha-Fc (mouse, UniProt Q60819 33-205).
T2 construct: Bought from R&D Systems and amine-coupled to a CM5 chip (1300 RU); also called rmIL-15Rα-Fc; rIL-15Rα-Fc; not shown: Fc part of the commercial fusion
T2 sequence (looked up): T1 chain
The assay is described as follows: SPR (BIACORE 3000), rIL-15Rα-Fc amine-coupled to CM5 chip, analyte injected, 1:1 interaction model; purified GIFT15 as analyte. Here is the method:
mGIFT15 was purified by immunoaffinity column packed using CNBr-sepharose (Amersham, N.J., USA) according to manufacturer's instructions. The binding interaction between mGIFT15 and rmIL-15Rα-Fc was examined in real-time using a BIACORE 3000 with research-grade CM5 sensor chips (Biacore AB, Uppsala, Sweden). Based on the manufacturer's recommendations, active CM5 surfaces were prepared by immobilizing rIL-15Rα-Fc (10 μg/mL in 10 mM sodium acetate pH 5.0) using the Amine Coupling Kit (Biacore AB) and HBS-M running buffer. Corresponding reference surfaces were prepared in the similar manner in the absence of any ligand. As a positive control, rIL-15 was injected at 50 μL/min (180 sec association+180 sec dissociation) over the reference and amine-coupled rIL-15Rα-Fc surfaces (1300 RU). Regeneration was achieved using two 30 second pulses of HBS-M containing 0.5 M NaCl, 50 mM EDTA, and 0.05% (v/v) TritonX-100 or Empigen. For the test sample, purified mGIFT15 was injected over the same sensor chip surfaces and regenerated in an identical manner. All binding data presented were “double-referenced” and analyzed according to a 1:1 interaction model using BIAevaluation 4.1 (Biacore AB).

Here are results for two molecules from US20100021421A1 (MCGILL UNIVERSITY, published 2010).

B1: recombinant mouse IL-15, P48346 49-162 (ligand, UniProt P48346 49-162, looked up)
chain: NWIDVRYDLEKIESLIQSIHIDTTLYTDSDFHPSCKVTAMNCFLLELQVILHEYSNMTLNETVRNVLYLANSTLSSNKNVAESGCKECEELEEKTFTEFLQSFIRIVQMFINTS
Take B1: the equilibrium dissociation constant (Kd) in assay [1] turned out to be 3 nM.

B2: mouse GM-CSF and IL-15 fusion protein (fusokine) mGIFT15 (ligand)
chain: APTRSPITVTRPWKHVEAIKEALNLLDDMPVTLNEEVEVVSNEFSFKKLTCVQTRLKIFEQGLRGNFTKLKGALNMTASYYQTYCPPTPETDCETQVTTYADFIDSLKTFLTDDPGRRAIMKILKPYMRNTSISCYLCFLLNSHFLTEAGIHVFILGCVSVGLPKTEANWIDVRYDLEKIESLIQSIHIDTTLYTDSDFHPSCKVTAMNCFLLELQVILHEYSNMTLNETVRNVLYLANSTLSSNKNVAESGCKECEELEEKTFTEFLQSFIRIVQMFINTS
notes: also called purified GIFT15; purified mGIFT15
As to B2, the equilibrium dissociation constant (Kd) in assay [2] was found to be 1.4 nM.
